Laboratory results as given in patent US11945858B2, “Antibodies and antibody fragments against HNAV1.7 channel and their use in pain and cancer indications” (NATIONAL RESEARCH COUNCIL OF CANADA, priority 2018, dated 2024).
“And” between values parts separate entries of the source, which are not always exact repeats. Equal values may be shown once. “Also recorded” adds a separate entry of the source.

Columns and labels:
FC5DIE3IR = target: T1, FC5DIE3IR (Homo sapiens, UniProt Q15858); experiment: Evaluation of apparent affinity of purified mAbs in ELISA; type: binding; details: purified mAb, OD 405 nm
T1 construct: The supernatant was collected and loaded on a 5 ml MabSelect™ SuRe™ column; made in house; host or cells: CHO-3E7 (transient, pTT5 vector), purified from supernatant
Method: Screening. Hybridoma supernatants were screened by ELISA to detect specific binders. To this end, 96-well half-area plates (Costar #3690) were coated with 25 μl of FC5DIE3IR or FC5-VHH or FC5-hFc-1X0 at 5 μg/ml in PBS and incubated overnight at 4° C. Microplates were washed 3 times with PBS, blocked with PBS-BSA 1%, and 25 μl of hybridoma supernatants were added and incubated at 37° C., 5% CO2 for 2 hours. Plates were washed 4 times with PBS-Tween 20 0.05% and incubated for one hour at 37° C., 5% CO2 with 25 μl of secondary antibody alkaline phosphatase conjugated F(ab′)2 goat anti-mouse IgG Fc-gamma specific (Jackson Immunoresearch #115-056-071) diluted 1/3000 in blocking buffer. After 4 washes with PBS-Tween 20 0.05%, 25 μl of a 1 mg/ml pNPP substrate solution was added and further incubated for one hour at 37° C. OD405 nm measurements were done using a microplate reader (Spectramax 340 PC, Molecular Devices).
Evaluation of apparent affinity in ELISA. Purified antibodies were assessed for their binding activity by ELISA in a dose-dependent binding curve. […] The data were analyzed with GraphPad Prism software using one-site specific binding-with Hill slope non-linear regression curve fit model to determine Bmax (maximum specific binding) and Kdapp (concentration needed to achieve a half-maximum binding at equilibrium) for each mAb tested. […]

[1] = test system: CFA-induced thermal hyperalgesia; experiment: Hargreaves Model of Hyperalgesia in rats; type: in vivo, rat
In short: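 Rats aged 4-6 weeks (180-220 g) received 50 μl of complete Freund's adjuvant, an emulsion of heat-killed M. tuberculosis in oil:saline 2:1, into the right hind paw to produce inflammatory pain. Baseline paw withdrawal latency was recorded 48 h later, and test antibodies were then given by intraplantar injection.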

hNav1.7 channels = hNav1.7 channels (Homo sapiens, UniProt Q15858, W1161R); experiment: Patch-clamp whole-cell recordings in hNav1.7-HEK293 cells; type: cell-based
[2] = test system: OD1-evoked Nav1.7-mediated spontaneous pain behaviours; type: in vivo, mouse; details: 100 μg, injected 60 minutes prior to OD1; 20 min after the injection
VHH FC5 = experiment: Surface Plasmon Resonance of mAbs, FC5 control; type: binding; details: SPR; 25 °C
Chain of VHH FC5 (as listed by the source): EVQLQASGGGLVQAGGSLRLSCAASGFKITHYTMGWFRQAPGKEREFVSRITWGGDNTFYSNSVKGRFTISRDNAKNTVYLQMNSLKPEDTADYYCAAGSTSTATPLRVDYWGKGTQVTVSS
Method: Surface Plasmon Resonance of mAbs. FC5 and FC5DIE3IR proteins were SEC purified using a Superdex 75 column (GE Healthcare) connected to an AKTAPurifier (GE Healthcare) in HBS-EP+ running buffer (10 mM HEPES, pH 7.4, containing 150 mM NaCl, 3 mM EDTA and 0.05% P20) at a flow rate of 1 ml/min. Monomeric eluted peaks were used to flow over Fc-capture 3A8 mAb surfaces. To prepare the 3A8 mAb surfaces, approximately 6000 RUs of anti-mouse IgG (GE Healthcare) was first immobilized on CM5 Series S sensor chips (GE Healthcare) at pH 5.0, using standard amine coupling methods previously reported (Hussack et al., 2011) and according to the manufacturer's instructions (GE Healthcare). HBS-EP running buffer used for SPR experiments. The mAb 3A8 was captured on the anti-mouse IgG surface using 10 μg/ml of mAb, 30 sec contact time and flow rate of 10 μl/min. IMAC-purified DI-D VHH was passed through a Superdex 75 (GE Healthcare) column for SEC purification in HBS-EP buffer (10 mM HEPES, pH 7.4, containing 150 mM NaCl, 3 mM EDTA and 0.005% P20), connected to an AKTAPurifier (GE Healthcare) at a flow rate of 1 ml/min. Test binding experiments of FC5 control and FC5DIE3IR involved flowing 1 μM concentrations of SEC-pure material over the mAb surface at a flow rate of 30 μl/min for 5 min. Surfaces could be regenerated using 10 mM glycine, pH 1.7, with a 120 sec pulse at 20 μl/min. All SPR experiments were evaluated with Biacore T200 Software v 3.0. For kinetic analysis, single cycle kinetic analysis was used by flowing a range of FC5DIE3IR concentrations (320 nM-20 nM) at a flow rate of 30 μl/min, with 600 sec contact time and 1200 sec dissociation. Regeneration conditions were the same as above. Data were fit to a 1:1 binding model and analyzed using the Biacore T200 Software v3.0.
Surfaces were regenerated by washing with running buffer (HBS-EP). Data were analyzed with BIAevaluation 4.1 software as described (Hussack et al., 2011) and affinities determined using the steady state binding model.
Surface Plasmon Resonance (SPR) for monoclonal antibodies.

[3] = −20 mV, after antibody application (1 μM)

B1: 3A8: anti-hNav1.7 mouse monoclonal antibody, IgG2a, k; heavy chain SEQ ID NO: 12, light chain SEQ ID NO: 18 (antibody, V domains shown)
VH: QVQLQQPGAELVKPGASVKLSCKASGYTFTNYWMHWVKQRPGQGLEWIGEINPSNGRANYNEKFKSKATLTVDKSSSTAYMQLSSLTSEDSAVYYCARSPYGYYDYWGQGTTLTVSSAKTTAPSVYPLAP
VL: DVLMTQTPLSLPVSLGDQASISCRSSQSLLHSNGNTYFHWYLQKPGQSPKLLIYKVSNRFFGVPDRFSGSGSGTDFTLKISRVEAEDLGVYFCSQITHVPLTFGAGTKLELKRADAAPTVSIFPPSS
modifications: Heavy chain of the 3A8 antibody without leader sequence; Light chain of the 3A8 antibody without leader sequence
Bmax (maximum specific binding) (FC5DIE3IR): 3.2
Percentage of effect after injection (on left paw withdrawal) ([1]; 50 μg intraplantar, 0 h): 0%
Latency paw withdrawal ([1]; 50 μg intraplantar, 1 h): 6.08 ± 0.70 s
Percentage of effect after injection (on left paw withdrawal) ([1]; 50 μg intraplantar, 1 h): 18.00%
Latency paw withdrawal ([1]; 50 μg intraplantar, 2 h): 7.38 ± 0.67 s
Percentage of effect after injection (on left paw withdrawal) ([1]; 50 μg intraplantar, 2 h): 24.09%
Latency paw withdrawal ([1]; 50 μg intraplantar, 4 h): 6.79 ± 0.50 s
Percentage of effect after injection (on left paw withdrawal) ([1]; 50 μg intraplantar, 4 h): 22.40%
Maximum effect (% Effect) ([1]; 50 μg intraplantar, reached 2 hours after injection): 24.09±3.69%
Percentage of effect after injection (on left paw withdrawal) ([1]; 100 μg intraplantar, 0 h): 0%
Latency paw withdrawal ([1]; 100 μg intraplantar, 1 h): 9.56 ± 0.70 s
Percentage of effect after injection (on left paw withdrawal) ([1]; 100 μg intraplantar, 1 h): 33.96%
Latency paw withdrawal ([1]; 100 μg intraplantar, 2 h): 10.58 ± 0.90 s
Percentage of effect after injection (on left paw withdrawal) ([1]; 100 μg intraplantar, 2 h): 40.55%
Latency paw withdrawal ([1]; 100 μg intraplantar, 4 h): 10.28 ± 1.20 s
Percentage of effect after injection (on left paw withdrawal) ([1]; 100 μg intraplantar, 4 h): 40.18%
Maximum percentage of the effect (% Effect; % MPE) ([1]; 100 μg intraplantar, time of maximum (1, 2 or 4 h)): 40.55±2.20%
Duration of the reversal of hyperalgesia ([1]; 30 mg/kg intravenous): up to 24 h
Reversal of CFA-induced hyperalgesia (in words) ([1]; 30 mg/kg intravenous): able to reverse CFA-induced hyperalgesia
Percentage of the maximum possible effect (% MPE) ([1]; 30 mg/kg intravenous (tail vein), 4 h): 26.60±3.26%
Latency paw withdrawal time ([1]; 3A8 alone 75 μg intraplantar (FIG. 18)): 10.59 ± 0.87 s
Reversal of hyperalgesia (% MPE) ([1]; 3A8 alone 75 μg intraplantar, 4 h): 35.35%±4.44
Latency paw withdrawal ([1]; intraplantar injection, 4 hours after administration (FIG. 10)): 8.50 ± 0.94 s
Voltage-dependence of activation (shift V1/2 activation) (hNav1.7 channels; 1 μM): −6.0±1.0 mV and −6.0 mV
Voltage-dependence of the steady-state fast inactivation (shift V1/2 inactivation) (hNav1.7 channels; 1 μM): −7.1±1.7 mV and −7.1 mV
Reduction of the hNav1.7 current in the time course (hNav1.7 channels; 1 μM, single time-course recording (FIG. 6B)): approx. 13%
Onset time of the effect (exponential fit of the current decay, T) (hNav1.7 channels; 1 μM, single time-course recording of the figure): 176 s
Effect on hNav1.7 currents (in words) (hNav1.7 channels; example recordings, 1-3 μM): reduced the hNav1.7 currents in a dose dependent manner
Fast inactivation (time constant) (hNav1.7 channels; [3]): 0.72 ± 0.08 ms and 0.72 ms
Time-to-peak (hNav1.7 channels; [3]): 0.88 ± 0.07 ms and 0.88 ms
Time spent in pain behaviors (saline plus OD1 = 100%) [2]: 73.76%±5.38
Binding to FC5 control (comment, in words) (VHH FC5): did not bind FC5; also recorded: No binding
